In article PMC4220973, “Structural insights into the human RyR2 N-terminal region involved in cardiac arrhythmias” (Acta Crystallographica Section D: Biological Crystallography, 2014):

Biological target: the molecule itself
Experiment: SEC; analytical size-exclusion chromatography at 4°C; self-association, monomer to dimer

B1: hRyR2^1-606 I419F mutant (domain or fragment, human, UniProt Q92736 1-606, looked up)
chain: MADGGEGEDEIQFLRTDDEVVLQCTATIHKEQQKLCLAAEGFGNRLCFLESTSNSKNVPPDLSICTFVLEQSLSVRALQEMLANTVEKSEGQVDVEKWKFMMKTAQGGGHRTLLYGHAILLRHSYSGMYLCCLSTSRSSTDKLAFDVGLQEDTTGEACWWTIHPASKQRSEGEKVRVGDDLILVSVSSERYLHLSYGNGSLHVDAAFQQTLWSVAPISSGSEAAQGYLIGGDVLRLLHGHMDECLTVPSGEHGEEQRRTVHYEGGAVSVHARSLWRLETLRVAWSGSHIRWGQPFRLRHVTTGKYLSLMEDKNLLLMDKEKADVKSTAFTFRSSKEKLDVGVRKEVDGMGTSEIKYGDSVCYIQHVDTGLWLTYQSVDVKSVRMGSIQRKAIMHHEGHMDDGISLSRSQHEESRTARVFRSTVFLFNRFIRGLDALSKKAKASTVDLPIESVSLSLQDLIGYFHPPDEHLEHEDKQNRLRALKNRQNLFQEEGMINLVLECIDRLHVYSSAAHFADVAGREAGESWKSILNSLYELLAALIRGNRKNCAQFSGSLDWLISRLERLEASSGILEVLHCVLVESPEALNIIKEGHIKSIISLLDKHGR
notes: human ryanodine receptor 2 (hRyR2), N-terminal region, amino acids 1-606, with the cardiac disease-associated mutation I419F in the central helix; Mixture of dimer and monomer by SEC at 4°C (65:35%); Construct details (host, tags) are in Borko et al. (2013); source: recombinant, purified; substitution mutant prepared with the QuikChange protocol
percent dimer (dimer:monomer ratio): 65% | stoichiometry N: 2
